Data taken from US20250388678A1, “Methods, Combinations, and Uses for the Treatment of Muscle Invasive Bladder Cancer” (AstraZeneca AB, priority 2024, published 2025).

What was measured:
xenograft model = settings: via a T-cell dependent mechanism; cited from earlier work
[1] = tested on: muscle-invasive bladder cancer; assay: NIAGARA phase III study: survival efficacy endpoints (EFS, OS, MFS, DSS, DFS); assay type: in vivo, human
Excerpt: The NIAGARA (NCT03732677) study described herein is a phase III, randomized, open-label, multi-center global study of durvalumab in combination with neoadjuvant gemcitabine+cisplatin before cystectomy (surgery to remove the bladder) followed by durvalumab as adjuvant monotherapy in patients with histologically or cytologically documented, resectable muscle-invasive bladder cancer and transitional cell carcinoma of the urothelium.
The study enrolled 1530 patients and randomized 1063 of those the patients in a 1:1 ratio to receive durvalumab+Gemcitabine+Cisplatin (D+G+C) combination therapy every three weeks (q3w) (Arm 1) or G+C combination therapy q3w (Arm 2) for 4 cycles of neoadjuvant chemotherapy prior to radical cystectomy. Patients started adjuvant durvalumab or placebo administration following surgery as soon as clinically feasible and within 42-120 days following surgery from surgery. Following radical cystectomy and during adjuvant therapy, patients in Arm 1 received durvalumab monotherapy every 4 weeks (q4w) for 8 additional cycles, and patients in Arm 2 received no adjuvant treatment.
Patients received a combination therapy comprising 1500 mg durvalumab or placebo via intravenous (IV) infusion q3w for up to a maximum of 4 cycles prior to surgery and a platinum therapy consisting of cisplatin and gemcitabine, the dose dependent on renal function. Patients having a creatinine clearance rate of about ≥60 mL/min, were administered cisplatin at a dose of about 70 mg/m^2 on day 1 of each cycle; and (b) gemcitabine at a dose of about 1000 mg/m^2 on days 1 and 8 of each cycle every 3 weeks (q3w) for a total of four cycles. Patients having a creatinine clearance rate of about ≥40 mL/min to <60 mL/min, were administered cisplatin at a dose of about 70 mg/m^2 on day 1 of each cycle; and (b) gemcitabine at a dose of about 1000 mg/m^2 on days 1 and 8 of each cycle every 3 weeks (q3w) for a total of four cycles.
A radical cystectomy was performed as soon as possible after completion of fourth administration of the combination therapy. The radical cystectomy was performed between […] following the last administration of the combination therapy. Male patients underwent radial cytoprostatectomy and urinary diversion along with bilateral pelvic lymph node dissection. Female patients underwent radical cystectomy. Elective hysterectomy and bilateral salpingectomy was optionally performed if no gross evidence of oncologic involvement was noted by the surgeon. Oophorectomy was omitted if clinically indicated. A urinary diversion creation was established via an ileal conduit, ileal neobladder, Indiana Pouch, or as per local practice. Bilateral pelvic lymph node dissection included following template to include the 1) external iliac, 2) obturator, and 3) internal iliac nodes, and 4) common iliac nodes to the level of the ureteric crossing and included a lymph node classified as cN1 at baseline if one was present. Removal of other nodes is per the surgeon's discretion. The boundaries of the template were the circumflex iliac vein and Cloquet's node, laterally by the genitofemoral nerve, medially by the bladder, posteriorly by the obturator fossa, and proximally to the ureter. Radical cystectomy was mandatory study procedure for all patients unless a patient is only able to undergo a partial cystectomy.
(§1) Dual primary efficacy endpoints evaluated in this study were event-free survival (EFS; per blinded independent central review [BICR]) and pathological complete response (pCR; evaluated centrally). Therefore, if either the EFS endpoint or pCR endpoint was achieved, the study was considered a success.
Secondary endpoints included overall survival (OS), and evaluation of the primary outcome in the PD-L1 high subgroup; pharmacokinetics and immunogenicity; patient-reported outcomes; and safety. […]

[2] = NIAGARA phase III study: adverse events and immune-mediated adverse events; assay type: in vivo
Excerpt: Adverse Events (AEs), Serious Adverse Events (SAE), and immune-mediated adverse events (imAE) were collected from the time of the patient signing the informed consent form until follow-up period as completed (90 days after last dose of treatment (Arm 1) or adjuvant phase study visits (Arm 2). Tables 3 and 4 outline the variables collected for adverse events and severe adverse events.
AESIs for durvalumab include but are not limited to events with a potential inflammatory or immune-mediated mechanism and which may require more frequent monitoring and/or interventions such as steroids, immunosuppressants, and/or hormone replacement therapy. These AESIs are closely monitored in clinical studies with durvalumab monotherapy and combination therapy. An imAE is defined as an AESI that is associated with drug exposure, required the use of systemic steroids or other immunosuppressants and/or endocrine therapy for specific endocrine events, is consistent with an immune-mediated MOA, and where there is no clear alternate etiology.
Serologic, immunologic, and histologic (biopsy) data, as appropriate, were used to support an imAE diagnosis. Appropriate efforts were made to rule out neoplastic, infectious, metabolic, toxin, or other etiologic causes of the imAE.
The overall safety profile is consistent with the known safety profile of durvalumab and chemotherapy. The addition of durvalumab to chemotherapy had no detrimental impact on backbone chemotherapy administration. AEs leading to treatment discontinuation in neoadjuvant phase were balanced between the two arms. The number of patients not undergoing radical surgery because of AEs due to neoadjuvant treatment was balanced in both arms. Rates of grade 3 or 4 AEs and AEs with outcome of death were similar between the two arms (See Table 6). The overall study period included AEs that occurred between the first dose of study treatment, and whichever occurred first: 1) 90 days after the last dose of treatment, surgery, or last adjuvant visit; 2) date of first dose of subsequent anti-cancer therapy; or 3) data cut-off date.

PD-L1 = PD-L1 (Homo sapiens, UniProt Q9NZQ7); settings: in vitro; cited from earlier work
[3] = tested on: muscle-invasive bladder cancer; assay: NIAGARA phase III study: pathological complete response (pCR) at radical cystectomy; assay type: in vivo, human
Experimental: as §1
Primary tumors and sampled lymph nodes were assessed for pathological response to neoadjuvant treatment by central pathology review using recommendations from the IASLC.
pCR efficacy assessment was accomplished by pathological review of radical cystectomy samples. EFS efficacy assessment were assessed by either RECIST 1.1 on imaging scans by pathology on biopsy samples if required.

[4] = ITT, durvalumab arm vs comparator arm
[5] = ITT, of 533 (durvalumab arm) / 530 (comparator arm)
[6] = non-pCR subgroup, durvalumab vs comparator, exploratory post hoc
[7] = pCR subgroup, durvalumab vs comparator, exploratory post hoc
[8] = patients with radical cystectomy and post-RC baseline scan, vs comparator arm
[9] = Safety Analysis Set, number of patients
[10] = durvalumab arm vs comparator arm

Sequence of PD-L1 (Q9NZQ7 19-290): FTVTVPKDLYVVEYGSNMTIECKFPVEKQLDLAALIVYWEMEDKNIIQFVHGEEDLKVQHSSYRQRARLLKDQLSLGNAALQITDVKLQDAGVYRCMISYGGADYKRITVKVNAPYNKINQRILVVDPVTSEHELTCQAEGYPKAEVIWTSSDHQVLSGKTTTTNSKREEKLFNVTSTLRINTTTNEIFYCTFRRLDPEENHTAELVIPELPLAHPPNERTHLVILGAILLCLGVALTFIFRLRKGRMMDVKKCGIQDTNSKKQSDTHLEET

Durvalumab: antibody that selectively binds PD-L1; trial arm: durvalumab+gemcitabine+cisplatin before radical cystectomy, then adjuvant durvalumab monotherapy
effect on tumor growth in a xenograft model (xenograft model): inhibits tumor growth | death from bladder cancer, percent of patients ([1]; ITT): 15.9% | patients with distant metastases or death (MFS events), percent ([1]; ITT): 28.5% | EFS Hazard Ratio (HR) ([1]; ITT population, durvalumab+cisplatin+gemcitabine vs cisplatin+gemcitabine, BICR, DCO April 2024): 0.68 | probability of 24-month metastasis-free survival ([1]; ITT, 24 months): 75.1% | disease-specific survival hazard ratio (HR) [1, 4]: 0.69 | metastasis-free survival hazard ratio (HR) [1, 4]: 0.67 | reduction in risk of death from bladder cancer (disease-specific survival) [1, 4]: 31% | reduction in the relative risk of death from any cause (OS) [1, 4]: 25% | reduction in risk of developing a distant metastasis or dying (metastasis-free survival) ([1]; ITT, durvalumab arm vs comparator arm, greater than 40 month follow-up): 33% | OS hazard ratio (HR) ([1]; ITT, durvalumab arm vs comparator arm, interim analysis): 0.75 | death from bladder cancer, number of patients [1, 5]: 85 patients | patients with distant metastases or death (MFS events), number [1, 5]: 152 patients | 24-month probability of disease-free survival ([1]; ITT, under heading Disease Specific Survival, 24 months): 89.2% | 24-month EFS rate ([1]; Non-pCR subgroup): 53% | 24-month OS rate ([1]; Non-pCR subgroup): 74% | DFS HR, non-pCR group ([1]; non-pCR group, vs comparator arm, exploratory post hoc): 0.82 | reduction in relative risk tumor growth, tumor spreading, not undergoing surgery or dying ([1]; non-pCR patients): 23% | reduction in the relative risk of dying from any cause ([1]; non-pCR patients): 16% | EFS HR, non-pCR patients [1, 6]: 0.77 | OS HR, non-pCR patients [1, 6]: 0.84 | DFS HR, pCR group ([1]; pCR group, vs comparator arm, exploratory post hoc): 0.58 | 24-month EFS rate ([1]; pCR subgroup): 92% | 24-month OS rate ([1]; pCR subgroup): 96% | EFS HR, patients with pCR [1, 7]: 0.58 | OS HR, patients with pCR [1, 7]: 0.72 | reduction in the relative risk of dying from any cause ([1]; patients achieving pCR): 28% | reduction in relative risk of tumor growth, tumor spreading, not undergoing surgery or dying ([1]; patients that achieved pCR): 42% | DFS hazard ratio (HR) [1, 8]: 0.69 | reduced risk of disease recurrence or death (DFS) [1, 8]: 31% | DFS HR, divergent or other histologic subtypes ([1]; total n=103, vs comparator arm): 0.45 | Anemia (%) ([2]; Safety Analysis Set): (38.7) % | Asthenia (%) ([2]; Safety Analysis Set): (17.5) % | Blood creatinine increased (%) ([2]; Safety Analysis Set): (18.5) % | Constipation (%) ([2]; Safety Analysis Set): (38.7) % | Decreased appetite (%) ([2]; Safety Analysis Set): (26.6) % | Diarrhea (%) ([2]; Safety Analysis Set): (20.6) % | Fatigue (%) ([2]; Safety Analysis Set): (36.0) % | Nausea (%) ([2]; Safety Analysis Set): (53.6) % | Neutropenia (%) ([2]; Safety Analysis Set): (25.8) % | Neutrophil count decreased (%) ([2]; Safety Analysis Set): (15.3) % | Patients with any AE (%) ([2]; Safety Analysis Set): (99.4) % | Pruritis (%) ([2]; Safety Analysis Set): (15.1) % | Pyrexia (%) ([2]; Safety Analysis Set): (20.8) % | Urinary tract infection (%) ([2]; Safety Analysis Set): (30.0) % | Vomiting (%) ([2]; Safety Analysis Set): (19.2) % | Anemia, number [2, 9]: 205 | Asthenia, number [2, 9]: 93 | Blood creatinine increased, number [2, 9]: 98 | Constipation, number [2, 9]: 205 | Decreased appetite, number [2, 9]: 141 | Diarrhea, number [2, 9]: 109 | Fatigue, number [2, 9]: 191 | Nausea, number [2, 9]: 284 | Neutropenia, number [2, 9]: 137 | Neutrophil count decreased, number [2, 9]: 81 | Patients with any AE, number [2, 9]: 527 | Pruritis, number [2, 9]: 80 | Pyrexia, number [2, 9]: 110 | Urinary tract infection, number [2, 9]: 159 | Vomiting, number [2, 9]: 102 | AEs leading to discontinuation of NAC, % ([2]; in vivo): (13.6) % | AEs leading to discontinuation of adjuvant durvalumab, % ([2]; in vivo): (7.8) % | AEs leading to discontinuation of neoadjuvant durvalumab, % ([2]; in vivo): (9.4) % | AEs leading to patient not undergoing RC, % ([2]; in vivo): (1.1) % | additional imAEs: dermatitis/rash, renal events, diarrhea/colitis, pneumonitis (each) ([2]; in vivo): ≤ 2% | imAE hyperthyroid events ([2]; in vivo): 3% | imAE hypothyroid events ([2]; in vivo): 10% | imAEs resolved at data cutoff, number of patients ([2]; of 111 (durvalumab arm) / 16 (comparator arm)): 45 patients | imAEs reported, number of patients ([2]; of 530 (durvalumab arm) / 526 (comparator arm)): 111 patients | imAEs resolved at data cutoff, percent of patients ([2]; of patients with imAEs): 41% | AEs leading to delay in surgery, % ([2]; outside recommended timeframe for RC of 56 days after last dose of NAC): (2.0) % | AEs leading to discontinuation of study treatment, % ([2]; overall study period): (21) % | AEs possibly related to any treatment: Max grade 3 or 4, % ([2]; overall study period): (40.6) % | AEs possibly related to any treatment: Outcome of death, % ([2]; overall study period): (0.6) % | AEs with outcome of death, % ([2]; overall study period): (5.1) % | Any-grade AEs possibly related to any treatment, % ([2]; overall study period): (94.7) % | Any-grade AEs, % ([2]; overall study period): (99.4) % | Any-grade AEs: Max grade 3 or 4, % ([2]; overall study period): (69.4) % | SAEs, % ([2]; overall study period): (61.5) % | imAEs grade 3/4 ([2]; overall study period): 3% | imAEs reported, percent of patients ([2]; overall study period, any grade): 21% | effect on PD-L1-mediated suppression of human T-cell activation (PD-L1): relieve PD-L1-mediated suppression of human T-cell activation | patients with pCR at the time of the radical cystectomy ([3]; ITT): 37.3% | difference in pCR with durvalumab in addition to chemotherapy [3, 10]: ~10% | pCR odds ratio [3, 10]: 1.60 | pCR rates among patients that underwent RC ([3]; durvalumab arm=469 patients, comparator arm=441 patients): increased
